Numbering of substitutions follows the chain as printed.
B1: 9.31.1 (antibody, human IgG4, V domains shown)
VH: QVQLVESGGGLVKPGGSLRLSCAASGFTFSDYYMSWIRQAPGKGLEWVSYIRSSGSTIYYADSVKGRFTISRDNAKNSLYLQMNSLRAEDTAVYYCARTPYSGRYHWYFDLWGRGTLVTVS
VL: SYELTQPPSVSVSPGQTARITCSGDALPIKYAYWYQHKSGQAPVLVIYEDSKRPSGIPERFSGSSSGTMATLTISGAQVEDEADYYCYSTDSSGNHRVFGGGTKLTVL
notes: lambda; also called 9.31.3
B2: 5.36.1 (antibody, human IgG4, V domains shown)
VH: QVQLQQSGPGLVKPSQTLSLTCAISGDSVSSNSAAWNWIRQSPSRGLEWLGRTYYRSKWYNDYAVSVKSRITINPDTSKNQFSLQLNSVTPEDTAVYYCAREEQQLVRYYYYYGMDVWGQGTTVTVS
VL: DIVMTQTPLSLSVTPGQPASISCKSSQSLLHSDGRTYLYWYLQRPGQPPQLLIYEASYRFSGVPDRFSGSGSGTDFTLKISRVEAEDVGIYYCMQSIQLPRTFGQGTRLEIK
notes: kappa
B3: 8.18.1 (antibody, human IgG4, V domains shown)
VH: QVQLQESGPGLVKPSETLSLTCTVSGGSVSSGGYYWSWIRQPPGKGLEWIGYFYYSGSPNYNPSLKRRIAISVDTSKNQFSLRLSSVTAADTAVYYCARDPMHYYGMDVWGQGTTVTVSS
VL: SSELTQPPSVSVFPGQTANITCSGDKLGDKFACWYQQKPGQSPVLVIYRDNKRPSGIPERFSGSNSGNTATLTISGTQAMDEADYYCQAWDSSTYVVFGGGTKLTVL
notes: lambda; also called mAb 8.18.1
B4: 8.6.1 (antibody, human IgG4, V domains shown)
VH: B3 VH with I39V, Y52C, F53I, Y55F, G57E, P59T, R67S, I69V, A70T, R83K
VL: B3 VL with S2F, F13S, N19S, R49Q, N51T, F61I
notes: lambda; also called 8.6.3
B5: 9.26.1 (antibody, human IgG4, V domains shown)
VH: QVQLVESGGGVVQPGRSLRLSCAASGFTFNNYGMHWVRQAPGKGLECVAVIWYDGGNKYYADSVKGRFAISRDNSKNTLYLQMNSLRAEDTAVYYCTAVTKLNYYYGMDVWGQGTTVTVS
VL: QSALTQPASVSGSPGQSITISCTGTSSDVGGYNYVSWYQQHPGKAPKLMIYEVSNRPSGVSNRFSGSKSGNTASLTISGLQAEDEADYYCSSYTSSSILVFGGGTKLTVL
notes: lambda; also called 9.26.3
B6: 6.33.1 (antibody, human IgG4, V domains shown)
VH: QVQLVESGGGVVQPGRSLRLSCAASGFTFSVYGMHWVRQAPGKGLEWVAVIWYDGSNKYYADSVKGRFTISRDNSKNTLYLQMNSLRAEDTAVYYCAREKSSGWFFDYWGQGTLVTVSS
VL: B5 VL with G31S, Y34L, N55K, V60I, S91C, T94A, S95G, S96N, L99W
notes: lambda; also called mAb 6.33.1
B7: 9.11.1 (antibody, human IgG4, V domains shown)
VH: B6 VH with S56N, A61V, M83L, K100R, G103S, F105Y
VL: B5 VL with P14S, G31S, Y34L, N55K, S91C, T94A, S95G, S96N, I98N, L99W
notes: lambda; also called 9.11.3
B8: 9.2.1 (antibody, human IgG4, V domains shown)
VH: B5 VH with K101T, N103Y
VL: B5 VL
notes: lambda
B9: 9.19.1 (antibody, human IgG4, V domains shown)
VH: B5 VH with G114R
VL: B5 VL with L48F
notes: lambda; also called mAb 9.19.1
B10: 6.26.1 (antibody, human IgG4, V domains shown)
VH: QLQLQESGPGLVKPSETLSLTCTVSGGSISRSSYYWGWIRQPPGKGLEWMGNIYYSGSTHYNPSLKSRVTISVDTSKNQFSLKLSSVTAADTAVFYCAKGREYISSSGYGMDVWGQGTTVTVS
VL: SYELTQPPSVSVSPGQTASITCSGDKLGNKYVCWYQQKPGQSPVLVIFQDSRRPSGIPERFSGSNSGNTATLTISGTQAMDEADYYCQAWDTSTVIFGGGTKLTVL
notes: lambda; also called 6.26.4
B11: 4.20.1 (antibody, human IgG4, V domains shown)
VH: QVQLVESGGGVVQPGRSLRLSCAASGFTFSNYGMNWVRQAPGKGLEWVAVIWYDGNNKSEADSVKGRFTISRDNSKNTLYLQMNSLRAEDTAVYYCARDSRSGPFDYWGQGTLVTVSS
VL: EIVLTQSPDFQSVTPKEKVTITCRASQSIGSSLHWYQQKPDQSPKLLIKFASQSFSGVPSRISGSGSGTDFTLTINSLEAEDAATYYCHQSSSLPFTFGPGTKVDIK
notes: kappa; also called 4.20.2
B12: 8.50.1 (antibody, human IgG4, V domains shown)
VH: QVQLQESGPGLVKPSETLSLTCTVSGGSISSDYWSWIRQPAGKGLEWIGRFYNSGRTNYRPSLKSRITMSVDTSKNQFSLKLSSVTAADTAVYYCARDMYSGRGNWYFDLWGRGTLVTVS
VL: B1 VL with I29K, H37Q, G94D
notes: lambda

target: T1, Recombinant human IL-1beta (rhIL-1b) (human, UniProt P01584 117-269); test: cell-based or functional assay

% IL-6 production, supernatant 1:5 dilut. [%]	% IL-6 production, supernatant 1:10 dilut. [%]	% IL-6 production, supernatant 1:20 dilut. [%]	Binder
6	23	13	B1
6	8	18	B2
2	3	9	B3
6	8	23	B4
12	27	27	B5
13	22	22	B6
4	3	10	B7
4	8	16	B8
5	10	15	B9
9	8	22	B10

target: T1, Recombinant human IL-1beta (rhIL-1b); test: cell-based or functional assay; remark: another data set of the same source

EC50, inhibition of IL-1β-induced IL-6 production in MRC-5 cells [nM]	Binder
14.3	B1
3.15	B2
0.536	B3
1.59	B4
5.68	B5
1.06	B6
2.67	B7
5.47	B8
2.91	B9
0.591	B10

target: T1, Recombinant human IL-1beta (rhIL-1b); test: cell-based or functional assay; remark: another data set of the same source

EC50, inhibition of IL-1β-induced IL-8 production in human whole blood [nM]	Binder
2.29	B3

target: T1, Recombinant human IL-1beta (rhIL-1b); test: Biacore, Low Resolution screen

Kd [nM]	Binder
0.712	B2
0.629	B3
1.23	B4
0.32	B6
0.29	B7
0.747	B8
0.478	B10

target: T1, Recombinant human IL-1beta (rhIL-1b); test: Biacore high-res, mAb amine-coupled, 23C

Kd [nM]	koff [s⁻¹]	kon [M⁻¹ s⁻¹]	Binder
0.388	0.000188	485000	B3
0.236	0.000259	1.1e+06	B6
0.262	0.00019	727000	B9

target: T2, IL-1β R4A mutant (human, UniProt P01584 117-269); test: binding to site-directed IL-1β mutant; X = abrogation of binding
T2 construct: site-directed mutant

binding result	Binder
no binding	B11
no binding	B2
no binding	B3

target: T3, IL-1β R11A mutant (human, UniProt P01584 117-269); test: as above
T3 construct: site-directed mutant

binding result	Binder
no binding	B1
no binding	B12
no binding	B11
no binding	B2
no binding	B3
no binding	B6
no binding	B7
no binding	B8
no binding	B10

target: T1, Recombinant human IL-1beta (rhIL-1b); test: Biacore, Medium Resolution; IL-1β in solution; medium-resolution Biacore

Kd [nM]	koff [s⁻¹]	kon [M⁻¹ s⁻¹]	Binder
0.58	0.00058	1e+06	B2
0.45	0.00022	490000	B3
0.82	–	–	B4
0.14	0.00014	970000	B6
0.14	0.00023	1.6e+06	B7
0.29	0.00035	1.2e+06	B8
0.063	4e-05	640000	B9
0.2	0.00038	1.9e+06	B10

target: T1, Recombinant human IL-1beta (rhIL-1b); test: Biacore low-res, mAb captured, 25C; IL-1β in solution (118 nM) over captured mAb; low-resolution Biacore, 25 C

Kd [nM]	koff [s⁻¹]	kon [M⁻¹ s⁻¹]	Binder
5.76	0.0038	660000	B1
9	0.027	3e+06	B12
5	–	–	B11
0.712	0.00042	590000	B2
0.629	0.00022	350000	B3
1.23	–	–	B4
0.854	0.00035	410000	B5
0.32	0.00016	500000	B6
0.29	0.0002	690000	B7
0.747	0.00074	990000	B8
0.268	0.00015	560000	B9
0.478	0.00044	920000	B10
